Test results: article PMC6800134

Target: GST-tagged Rb RxL mut (lacks all 5 RxL sequences in its unstructured regions) (human) (UniProt P06400)
Chain of UniProt P06400 (P06400 whole entry): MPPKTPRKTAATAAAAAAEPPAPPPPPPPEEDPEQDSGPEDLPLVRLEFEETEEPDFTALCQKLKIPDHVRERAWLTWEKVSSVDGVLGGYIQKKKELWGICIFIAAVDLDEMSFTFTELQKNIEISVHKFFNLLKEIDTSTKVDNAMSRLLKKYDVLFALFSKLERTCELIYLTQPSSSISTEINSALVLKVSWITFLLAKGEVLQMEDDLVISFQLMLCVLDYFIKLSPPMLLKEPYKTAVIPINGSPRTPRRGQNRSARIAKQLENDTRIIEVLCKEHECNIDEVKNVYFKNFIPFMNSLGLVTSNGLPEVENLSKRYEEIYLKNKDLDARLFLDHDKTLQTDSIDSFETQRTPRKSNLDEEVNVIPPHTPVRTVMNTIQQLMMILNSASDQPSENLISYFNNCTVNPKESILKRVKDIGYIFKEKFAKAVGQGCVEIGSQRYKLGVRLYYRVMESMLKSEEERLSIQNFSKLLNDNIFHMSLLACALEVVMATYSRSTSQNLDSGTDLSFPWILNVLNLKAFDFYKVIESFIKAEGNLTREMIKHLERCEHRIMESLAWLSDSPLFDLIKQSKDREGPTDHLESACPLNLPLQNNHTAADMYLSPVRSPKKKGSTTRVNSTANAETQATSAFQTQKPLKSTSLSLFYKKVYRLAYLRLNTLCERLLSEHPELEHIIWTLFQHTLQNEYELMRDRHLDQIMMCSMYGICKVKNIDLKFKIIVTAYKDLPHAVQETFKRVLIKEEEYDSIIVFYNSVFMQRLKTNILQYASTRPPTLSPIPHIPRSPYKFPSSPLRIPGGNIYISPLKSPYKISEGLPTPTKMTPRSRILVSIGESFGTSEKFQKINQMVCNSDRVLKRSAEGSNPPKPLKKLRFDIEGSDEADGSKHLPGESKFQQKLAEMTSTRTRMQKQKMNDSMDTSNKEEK

Row | in vitro kinase assay: fold less phosphorylation than wild type Rb | Substance
1 | 2.9 fold | 3X FLAG-tagged cyclin A-Cdk2 fusion complex (enzyme)
2 | 2 fold | 3X FLAG-tagged cyclin E1-Cdk2 fusion complex (enzyme)
